Assay results: patent US20110118131A1 (published 2011)

Target: T1, Ep-CAM (UniProt P16422 24-265, limits assumed)
T1 construct: Antigen of the Biacore analysis of ING-1 variants
T1 sequence (looked up): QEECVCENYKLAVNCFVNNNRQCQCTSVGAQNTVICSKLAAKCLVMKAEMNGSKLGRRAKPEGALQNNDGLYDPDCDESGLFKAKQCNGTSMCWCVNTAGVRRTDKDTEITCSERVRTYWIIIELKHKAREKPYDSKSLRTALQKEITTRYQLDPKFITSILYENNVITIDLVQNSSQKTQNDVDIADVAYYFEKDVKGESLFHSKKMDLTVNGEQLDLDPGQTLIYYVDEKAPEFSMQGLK
Experiment: Biacore, Fab periplasmic extract

Binder | binding result | fold difference in affinity vs original
ING-1 heavy chain T53N (Fab, V domains shown) VH: QIQLVQSGPELKKPGETVKISCKASGYTFTKYGMNWVKQAPGKGLKWMGWINNYTEEPTYGDDFKGRFAFSLETSASTANLQINNLKSEDTATYFCARFGSAVDYWGQGTSVTVSS VL: DIVMTQAAFSNPVTLGTSGSISCRSSKSLLHSNGITYLYWYLQKPGQSPQLLIYQMSNLASGVPDRFSSSGSGTDFTLRISRVEAEDVGVYYCAQNLELPRTFGGGTKLEMKR | no binding | 
ING-1 heavy chain T53Q (Fab, V domains shown) VH: QIQLVQSGPELKKPGETVKISCKASGYTFTKYGMNWVKQAPGKGLKWMGWINQYTEEPTYGDDFKGRFAFSLETSASTANLQINNLKSEDTATYFCARFGSAVDYWGQGTSVTVSS VL: DIVMTQAAFSNPVTLGTSGSISCRSSKSLLHSNGITYLYWYLQKPGQSPQLLIYQMSNLASGVPDRFSSSGSGTDFTLRISRVEAEDVGVYYCAQNLELPRTFGGGTKLEMKR | no binding | 
ING-1 heavy chain T59H (Fab, V domains shown) VH: QIQLVQSGPELKKPGETVKISCKASGYTFTKYGMNWVKQAPGKGLKWMGWINTYTEEPHYGDDFKGRFAFSLETSASTANLQINNLKSEDTATYFCARFGSAVDYWGQGTSVTVSS VL: DIVMTQAAFSNPVTLGTSGSISCRSSKSLLHSNGITYLYWYLQKPGQSPQLLIYQMSNLASGVPDRFSSSGSGTDFTLRISRVEAEDVGVYYCAQNLELPRTFGGGTKLEMKR |  | 0.4 fold
ING-1 heavy chain T59Q (Fab, V domains shown) VH: QIQLVQSGPELKKPGETVKISCKASGYTFTKYGMNWVKQAPGKGLKWMGWINTYTEEPQYGDDFKGRFAFSLETSASTANLQINNLKSEDTATYFCARFGSAVDYWGQGTSVTVSS VL: DIVMTQAAFSNPVTLGTSGSISCRSSKSLLHSNGITYLYWYLQKPGQSPQLLIYQMSNLASGVPDRFSSSGSGTDFTLRISRVEAEDVGVYYCAQNLELPRTFGGGTKLEMKR | no binding | 
ING-1 heavy chain T53W (Fab, V domains shown) VH: QIQLVQSGPELKKPGETVKISCKASGYTFTKYGMNWVKQAPGKGLKWMGWINWYTEEPTYGDDFKGRFAFSLETSASTANLQINNLKSEDTATYFCARFGSAVDYWGQGTSVTVSS VL: DIVMTQAAFSNPVTLGTSGSISCRSSKSLLHSNGITYLYWYLQKPGQSPQLLIYQMSNLASGVPDRFSSSGSGTDFTLRISRVEAEDVGVYYCAQNLELPRTFGGGTKLEMKR | no binding | 
ING-1 heavy chain T55Y (Fab, V domains shown) VH: QIQLVQSGPELKKPGETVKISCKASGYTFTKYGMNWVKQAPGKGLKWMGWINTYYEEPTYGDDFKGRFAFSLETSASTANLQINNLKSEDTATYFCARFGSAVDYWGQGTSVTVSS VL: DIVMTQAAFSNPVTLGTSGSISCRSSKSLLHSNGITYLYWYLQKPGQSPQLLIYQMSNLASGVPDRFSSSGSGTDFTLRISRVEAEDVGVYYCAQNLELPRTFGGGTKLEMKR |  | 0.03 fold
ING-1 heavy chain T53Y (Fab, V domains shown) VH: QIQLVQSGPELKKPGETVKISCKASGYTFTKYGMNWVKQAPGKGLKWMGWINYYTEEPTYGDDFKGRFAFSLETSASTANLQINNLKSEDTATYFCARFGSAVDYWGQGTSVTVSS VL: DIVMTQAAFSNPVTLGTSGSISCRSSKSLLHSNGITYLYWYLQKPGQSPQLLIYQMSNLASGVPDRFSSSGSGTDFTLRISRVEAEDVGVYYCAQNLELPRTFGGGTKLEMKR | no binding | 
ING-1 heavy chain T55E (Fab, V domains shown) VH: QIQLVQSGPELKKPGETVKISCKASGYTFTKYGMNWVKQAPGKGLKWMGWINTYEEEPTYGDDFKGRFAFSLETSASTANLQINNLKSEDTATYFCARFGSAVDYWGQGTSVTVSS VL: DIVMTQAAFSNPVTLGTSGSISCRSSKSLLHSNGITYLYWYLQKPGQSPQLLIYQMSNLASGVPDRFSSSGSGTDFTLRISRVEAEDVGVYYCAQNLELPRTFGGGTKLEMKR | no binding | 
ING-1 heavy chain W50E (Fab, V domains shown) VH: QIQLVQSGPELKKPGETVKISCKASGYTFTKYGMNWVKQAPGKGLKWMGEINTYTEEPTYGDDFKGRFAFSLETSASTANLQINNLKSEDTATYFCARFGSAVDYWGQGTSVTVSS VL: DIVMTQAAFSNPVTLGTSGSISCRSSKSLLHSNGITYLYWYLQKPGQSPQLLIYQMSNLASGVPDRFSSSGSGTDFTLRISRVEAEDVGVYYCAQNLELPRTFGGGTKLEMKR | no binding | 
ING-1 heavy chain T55W (Fab, V domains shown) VH: QIQLVQSGPELKKPGETVKISCKASGYTFTKYGMNWVKQAPGKGLKWMGWINTYWEEPTYGDDFKGRFAFSLETSASTANLQINNLKSEDTATYFCARFGSAVDYWGQGTSVTVSS VL: DIVMTQAAFSNPVTLGTSGSISCRSSKSLLHSNGITYLYWYLQKPGQSPQLLIYQMSNLASGVPDRFSSSGSGTDFTLRISRVEAEDVGVYYCAQNLELPRTFGGGTKLEMKR |  | 0.1 fold
ING-1 heavy chain T55F (Fab, V domains shown) VH: QIQLVQSGPELKKPGETVKISCKASGYTFTKYGMNWVKQAPGKGLKWMGWINTYFEEPTYGDDFKGRFAFSLETSASTANLQINNLKSEDTATYFCARFGSAVDYWGQGTSVTVSS VL: DIVMTQAAFSNPVTLGTSGSISCRSSKSLLHSNGITYLYWYLQKPGQSPQLLIYQMSNLASGVPDRFSSSGSGTDFTLRISRVEAEDVGVYYCAQNLELPRTFGGGTKLEMKR |  | 0.03 fold
ING-1 heavy chain T55D (Fab, V domains shown) VH: QIQLVQSGPELKKPGETVKISCKASGYTFTKYGMNWVKQAPGKGLKWMGWINTYDEEPTYGDDFKGRFAFSLETSASTANLQINNLKSEDTATYFCARFGSAVDYWGQGTSVTVSS VL: DIVMTQAAFSNPVTLGTSGSISCRSSKSLLHSNGITYLYWYLQKPGQSPQLLIYQMSNLASGVPDRFSSSGSGTDFTLRISRVEAEDVGVYYCAQNLELPRTFGGGTKLEMKR |  | 0.03 fold
ING-1 heavy chain T55H (Fab, V domains shown) VH: QIQLVQSGPELKKPGETVKISCKASGYTFTKYGMNWVKQAPGKGLKWMGWINTYHEEPTYGDDFKGRFAFSLETSASTANLQINNLKSEDTATYFCARFGSAVDYWGQGTSVTVSS VL: DIVMTQAAFSNPVTLGTSGSISCRSSKSLLHSNGITYLYWYLQKPGQSPQLLIYQMSNLASGVPDRFSSSGSGTDFTLRISRVEAEDVGVYYCAQNLELPRTFGGGTKLEMKR |  | 0.05 fold
ING-1 heavy chain T55Q (Fab, V domains shown) VH: QIQLVQSGPELKKPGETVKISCKASGYTFTKYGMNWVKQAPGKGLKWMGWINTYQEEPTYGDDFKGRFAFSLETSASTANLQINNLKSEDTATYFCARFGSAVDYWGQGTSVTVSS VL: DIVMTQAAFSNPVTLGTSGSISCRSSKSLLHSNGITYLYWYLQKPGQSPQLLIYQMSNLASGVPDRFSSSGSGTDFTLRISRVEAEDVGVYYCAQNLELPRTFGGGTKLEMKR |  | 0.03 fold
ING-1 heavy chain T53R (Fab, V domains shown) VH: QIQLVQSGPELKKPGETVKISCKASGYTFTKYGMNWVKQAPGKGLKWMGWINRYTEEPTYGDDFKGRFAFSLETSASTANLQINNLKSEDTATYFCARFGSAVDYWGQGTSVTVSS VL: DIVMTQAAFSNPVTLGTSGSISCRSSKSLLHSNGITYLYWYLQKPGQSPQLLIYQMSNLASGVPDRFSSSGSGTDFTLRISRVEAEDVGVYYCAQNLELPRTFGGGTKLEMKR | no binding | 
